{"source": "patent US20110311550A1", "about": "(Scripps Research, published 2011)", "binders": {"B1": {"name": "N4 IgG (antibody, V domains shown)", "VH": "VQLLEQSGPEVKKPGDSLRISCKMSGDSLVTTWIGWVRQKPGQGLEWMGIINPGDSSTNIYPGDSATRYGPSFQGQVTISIDKSTSTAYLQWNNVKASDTGIYYCARHVPVPISGTFLWREREMHDFGYFDDWGQGTLVIVSS", "VL": "ELTLTQSPGTLSLSPGERATLSCRASQSVSNNYLAWYQQKPGQAPRLLIYGASSRATGIPDRFSGSGSGTGFTLIISRLEPEDFAVYYCQQYGSSSITFGQGTRLEIKR", "notes": "also called IgG N4"}}, "experiment_in_all_cases": "ELISA, lectin-captured E1E2 lysate, Ab 1 ug/ml;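 further: E1E2 captured on Galanthus nivalis lectin-coated plates, bound test antibody read out by an HRP-linked secondary antibody and TMB colour development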", "key": {"[1]": {"target": "E1E2 complex (H77) with E1 mutation V246A (HCV genotype 1a, isolate H77, UniProt P27958 192-383; P27958 384-746)"}, "[2]": {"target": "E1E2 complex (H77) with E1 mutation D206A (HCV genotype 1a, isolate H77, UniProt P27958 192-383; P27958 384-746)"}, "[3]": {"target": "E1E2 complex (H77) with E1 mutation S273A (HCV genotype 1a, isolate H77, UniProt P27958 192-383; P27958 384-746)"}}}
{"binder": "B1", "values": [{"measurement": "Binding relative to wt (%)", "setting": "[1]", "result": 97, "unit": "%"}, {"measurement": "Binding relative to wt (%)", "setting": "[2]", "result": 17, "unit": "%"}, {"measurement": "Binding relative to wt (%)", "setting": "[3]", "result": 70, "unit": "%"}]}
